Legend:
[1] = target: T1, MraZ (UniProt Q7NB78 1-142); test: EMSA; control; 20 mM Tris-HCl pH 7.5, 100 mM KCl, 6% glycerol, 15 min at 37 °C; 20 pmol protein with 10 pmol dsDNA; 6% acrylamide gel, TB buffer pH 8.3, 10 °C, EtBr stain; details: protein: recombinant; chain copies: 8
T1 sequence: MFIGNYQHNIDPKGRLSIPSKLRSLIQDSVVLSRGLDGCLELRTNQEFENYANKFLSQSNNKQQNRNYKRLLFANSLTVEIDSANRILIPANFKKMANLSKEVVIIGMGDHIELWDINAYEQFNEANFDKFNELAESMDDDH

[2] = target: T2, HsdC (controller protein of type I RM-system) (Mycoplasma gallisepticum S6, UniProt A0A0F6CKR7 1-64); test: EMSA titration; printed as binding constant; 20 mM Tris-HCl pH 7.5, 100 mM KCl, 6% glycerol, 15 min at 37 °C; 20 pmol protein with 10 pmol dsDNA; 6% acrylamide gel, TB buffer pH 8.3, 10 °C, EtBr stain; details: protein: recombinant; tags: C-terminal His-tag (pETm); chain copies: 2
[3] = target: T1, MraZ; test: EMSA; strength comparable to own site; 20 mM Tris-HCl pH 7.5, 100 mM KCl, 6% glycerol, 15 min at 37 °C; 20 pmol protein with 10 pmol dsDNA; 6% acrylamide gel, TB buffer pH 8.3, 10 °C, EtBr stain; details: protein: recombinant; chain copies: 8
[4] = target: T2, HsdC (controller protein of type I …); test: EMSA; similar or slightly weaker than PhsdC; 20 mM Tris-HCl pH 7.5, 100 mM KCl, 6% glycerol, 15 min at 37 °C; 20 pmol protein with 10 pmol dsDNA; 6% acrylamide gel, TB buffer pH 8.3, 10 °C, EtBr stain; details: protein: recombinant; tags: C-terminal His-tag (pETm); chain copies: 2

B1: PmraZ (dsDNA)
DNA 1: AATTCAAAAGTGTTAAAAAGTGTGAGAAAGTGGGAAAAAT
DNA 2: ATTTTTCCCACTTTCTCACACTTTTTAACACTTTTGAATT
Does B1 bind [1]?
Result: binds

B2: PhsdC-WT (dsDNA)
DNA 1: TTATCGGCTTTGTGTTAAAATAGTGTTAACGATTTTGAAG
DNA 2: CTTCAAAATCGTTAACACTATTTTAACACAAAGCCGATAA
Which Kd [2] does the source give for B2 here?
Its Kd is roughly 5 nM.

Does B2 bind [3]?
Result: binds

B3: PtrnM (dsDNA)
DNA 1: ATTGTTATTATATGATAATAATGTGTAACACATCGCGGGA
DNA 2: TCCCGCGATGTGTTACACATTATTATCATATAATAACAAT
Does B3 bind [4]?
Result: binds

B4: PclpB (dsDNA)
DNA 1: TAATAGCCTAAGTGCTAATTTTTTGTTATAATAAATCTAT
DNA 2: ATAGATTTATTATAACAAAAAATTAGCACTTAGGCTATTA
Does B4 bind [4]?
Result: binds

From article PMC5282649, “Binding site of restriction-modification system controller protein in Mollicutes”
